Source: patent publication US20240400675A1 (published 2024)

T1: cyno CLDN6
T1 chain: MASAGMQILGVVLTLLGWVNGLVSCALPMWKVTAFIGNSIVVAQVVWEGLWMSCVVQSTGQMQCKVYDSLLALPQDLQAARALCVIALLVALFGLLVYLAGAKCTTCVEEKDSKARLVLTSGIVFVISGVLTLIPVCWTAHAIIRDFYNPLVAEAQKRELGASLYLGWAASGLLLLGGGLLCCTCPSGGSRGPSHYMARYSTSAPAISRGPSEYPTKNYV

T2: human CLDN6 (UniProt P56747 1-220)
T2 chain: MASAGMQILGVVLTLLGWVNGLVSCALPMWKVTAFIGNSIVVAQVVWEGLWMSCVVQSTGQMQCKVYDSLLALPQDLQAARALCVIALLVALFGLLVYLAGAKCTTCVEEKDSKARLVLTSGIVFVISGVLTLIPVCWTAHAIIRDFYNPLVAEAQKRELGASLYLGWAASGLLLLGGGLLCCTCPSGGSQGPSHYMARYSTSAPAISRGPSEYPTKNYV

T3: mouse CLDN6 (mouse, UniProt Q9Z262 1-219)
T3 chain: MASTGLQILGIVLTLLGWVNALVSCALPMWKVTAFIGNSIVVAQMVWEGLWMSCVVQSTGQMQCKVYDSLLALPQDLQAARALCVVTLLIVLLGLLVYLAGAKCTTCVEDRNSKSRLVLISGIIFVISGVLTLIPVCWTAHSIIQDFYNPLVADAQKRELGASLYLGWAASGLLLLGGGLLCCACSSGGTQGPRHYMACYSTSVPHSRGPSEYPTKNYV

T4: CLDN6 I143V isotype (UniProt P56747 1-220)
T4 chain: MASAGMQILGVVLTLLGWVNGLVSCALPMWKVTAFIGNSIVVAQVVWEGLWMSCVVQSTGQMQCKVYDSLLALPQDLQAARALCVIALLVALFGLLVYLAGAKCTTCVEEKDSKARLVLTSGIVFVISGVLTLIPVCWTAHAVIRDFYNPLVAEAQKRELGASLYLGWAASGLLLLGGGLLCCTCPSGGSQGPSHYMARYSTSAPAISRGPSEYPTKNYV

T5: human CLDN9 (UniProt O95484 1-217)
T5 chain: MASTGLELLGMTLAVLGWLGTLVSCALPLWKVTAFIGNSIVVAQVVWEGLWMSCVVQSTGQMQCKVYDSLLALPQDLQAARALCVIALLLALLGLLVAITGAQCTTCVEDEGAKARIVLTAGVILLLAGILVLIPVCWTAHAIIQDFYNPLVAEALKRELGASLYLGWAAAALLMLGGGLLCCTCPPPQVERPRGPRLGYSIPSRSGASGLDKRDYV


Tests used:
cyno CLDN6 = molecular target: T1, cyno CLDN6; experiment: flow cytometry, HEK293E cells
human CLDN6 [1] = molecular target: T2, human CLDN6; experiment: flow cytometry, HEK293E cells
mouse CLDN6 = molecular target: T3, mouse CLDN6; experiment: flow cytometry, HEK293E cells
CLDN6 I143V isotype = molecular target: T4, CLDN6 I143V isotype; experiment: flow cytometry, HEK293E cells
human CLDN9 [2] = molecular target: T5, human CLDN9; experiment: flow cytometry, HEK293E cells
human CLDN6 [3] = molecular target: T2, human CLDN6; experiment: flow cytometry, HEK293E cells
human CLDN9 [4] = molecular target: T5, human CLDN9; experiment: HEK293E cell binding; avid
human CLDN6 [5] = molecular target: T2, human CLDN6; experiment: HEK293E cell binding; avid
human CLDN9 [6] = molecular target: T5, human CLDN9; experiment: HEK293E cell binding; avid
human CLDN6 [7] = molecular target: T2, human CLDN6; experiment: HEK293E cell binding; avid

Binder | EC50 (human CLDN9 [4]) [µg/mL] | EC50 (human CLDN6 [5]) [µg/mL] | EC50 (human CLDN9 [6]) [µg/mL] | EC50 (human CLDN6 [7]) [µg/mL] | further results
XENP34233 (C6-30_H1L1 x CD3 bsAb in the 2+1 Fab2-scFv-Fc format) (bispecific antibody) heavy 1: QVQLVQSGAEVKKPGASVKVSCKTSGYTFTEYTMHWVRQAPGQSLEWMGGIDPNNGNTHYNQKFQGRVTITVDKSASTAYMELSSLRSEDTAVYYCARIYYFGRLYFDFWGAGTLVTVSSASTKGPSVFPLAPSSKSTSGGTAALGCLVKDYFPEPVTVSWNSGALTSGVHTFPAVLQSSGLYSLSSVVTVPSSSLGTQTYICNVNHKPSDTKVDKKVEPKSCDKTHTCPPCPAPPVAGPSVFLFPPKPKDTLMISRTPEVTCVVVDVKHEDPEVKFNWYVDGVEVHNAKTKPREEEYNSTYRVVSVLTVLHQDWLNGKEYKCKVSNKALPAPIEKTISKAKGQPREPQVYTLPPSREEMTKNQVSLTCDVSGFYPSDIAVEWESDGQPENNYKTTPPVLDSDGSFFLYSKLTVDKSRWEQGDVFSCSVMHEALHNHYTQKSLSLSPGK heavy 2: QVQLVQSGAEVKKPGASVKVSCKTSGYTFTEYTMHWVRQAPGQSLEWMGGIDPNNGNTHYNQKFQGRVTITVDKSASTAYMELSSLRSEDTAVYYCARIYYFGRLYFDFWGAGTLVTVSSASTKGPSVFPLAPSSKSTSGGTAALGCLVKDYFPEPVTVSWNSGALTSGVHTFPAVLQSSGLYSLSSVVTVPSSSLGTQTYICNVNHKPSNTKVDKKVEPKSCGGGGSGGGGSQAVVTQEPSLTVSPGGTVTLTCGSSTGAVTTSNYANWVQQKPGKSPRGLIGGTNKRAPGVPARFSGSLLGGKAALTISGAQPEDEADYYCALWYSNHWVFGGGTKLTVLGKPGSGKPGSGKPGSGKPGSEVQLVESGGGLVQPGGSLRLSCAASGFTFSTYAMNWVRQAPGKGLEWVGRIRSKYNNYATYYADSVKGRFTISRDDSKNTLYLQMNSLRAEDTAVYYCVRHGNFGDSYVSWFAYWGQGTLVTVSSGGGGSGGGGSKTHTCPPCPAPPVAGPSVFLFPPKPKDTLMISRTPEVTCVVVDVKHEDPEVKFNWYVDGVEVHNAKTKPREEQYNSTYRVVSVLTVLHQDWLNGKEYKCKVSNKALPAPIEKTISKAKGQPREPQVYTLPPSREQMTKNQVKLTCLVKGFYPSDIAVEWESNGQPENNYKTTPPVLDSDGSFFLYSKLTVDKSRWQQGNVFSCSVMHEALHNHYTQKSLSLSPGK light: not shown | – | – | – | – | EC50 (cyno CLDN6): 0.316 µg/mL; EC50 (human CLDN6 [1]): 0.224 µg/mL; EC50 (mouse CLDN6): 0.664 µg/mL; EC50 (CLDN6 I143V isotype): 0.329 µg/mL; EC50 (human CLDN9 [2]): 6.73 µg/mL; EC50 (human CLDN6 [3]): 0.359 µg/mL
XENP34218, humanized C6-30 H1L1 bivalent mAb (antibody, V domains shown) VH: QVQLVQSGAEVKKPGASVKVSCKTSGYTFTEYTMHWVRQAPGQSLEWMGGIDPNNGNTHYNQKFQGRVTITVDKSASTAYMELSSLRSEDTAVYYCARIYYFGRLYFDFWGAGTLVTVSS VL: DIQMTQSPSSLSASVGDRVTITCQASEDIYNRLAWYQQKPGKVPKLLISGATSLETGVPSRFSGSGSGKDYTFTISSLQPEDIATYYCQQYWSSPLTFGGGTKVEIKR | 11.6 | 0.344 | 54.2 | 1.24 | –
XENP35090 H1.6_L1 (antibody, V domains shown) VH: QVQLVQSGAEVKKPGASVKVSCKTSGYTFTEYTMHWVRQAPGQSLEWMGGIDPNSGNTHYNQKFQGRVTITVDKSASTAYMELSSLRSEDTAVYYCARIYYFGRLYFDFWGAGTLVTVSS VL: DIQMTQSPSSLSASVGDRVTITCQASEDIYNRLAWYQQKPGKVPKLLISGATSLETGVPSRFSGSGSGKDYTFTISSLQPEDIATYYCQQYWSSPLTFGGGTKVEIKR | 7.06 | 0.903 | 44.6 | 1.56 | –
XENP34220, humanized C6-30 H2L1 bivalent mAb (antibody, V domains shown) VH: EVQLVQSGAEVKKPGESLRISCKTSGYTFTEYTMHWVRQMPGKSLEWMGGIDPNNGNTHYNQKFQGHVTISVDKSISTAYLQWSSLKASDTAMYYCARIYYFGRLYFDFWGAGTLVTVSS VL: DIQMTQSPSSLSASVGDRVTITCQASEDIYNRLAWYQQKPGKVPKLLISGATSLETGVPSRFSGSGSGKDYTFTISSLQPEDIATYYCQQYWSSPLTFGGGTKVEIKR | 11.1 | 0.391 | 43.8 | 1.63 | –

More lines, main results first:

EC50 (human CLDN9 [4]) [µg/mL] | EC50 (human CLDN6 [5]) [µg/mL] | EC50 (human CLDN9 [6]) [µg/mL] | EC50 (human CLDN6 [7]) [µg/mL] | Binder | further results
31.7 | 0.404 | – | – | XENP35981 H2_L1.189 (antibody, V domains shown) VH: EVQLVQSGAEVKKPGESLRISCKTSGYTFTEYTMHWVRQMPGKSLEWMGGIDPNNGNTHYNQKFQGHVTISVDKSISTAYLQWSSLKASDTAMYYCARIYYFGRLYFDFWGAGTLVTVSS VL: DIQMTQSPSSLSASVGDRVTITCQASEDIYLRLAWYQQKPGKVPKLLISGATSLETGVPSRFSGSGSGKDYTFTISSLQPEDIATYYCQQYWSSPLTFGGGTKVEIKR | –
44.1 | 0.474 | – | – | XENP35891 H2.12_L1 (antibody, V domains shown) VH: EVQLVQSGAEVKKPGESLRISCKTSGYDFTEYTMHWVRQMPGKSLEWMGGIDPNNGNTHYNQKFQGHVTISVDKSISTAYLQWSSLKASDTAMYYCARIYYFGRLYFDFWGAGTLVTVSS VL: DIQMTQSPSSLSASVGDRVTITCQASEDIYNRLAWYQQKPGKVPKLLISGATSLETGVPSRFSGSGSGKDYTFTISSLQPEDIATYYCQQYWSSPLTFGGGTKVEIKR | –
24.5 | 0.941 | – | – | XENP35886 H1.22_L1 (antibody, V domains shown) VH: QVQLVQSGAEVKKPGASVKVSCKTSGYTFTEYTMHWVRQAPGQSLEWMGGIDPNNGNTHYNQKFQGRVTITVDKSASTAYMELSSLRSEDTAVYYCARILYFGRLYFDFWGAGTLVTVSS VL: DIQMTQSPSSLSASVGDRVTITCQASEDIYNRLAWYQQKPGKVPKLLISGATSLETGVPSRFSGSGSGKDYTFTISSLQPEDIATYYCQQYWSSPLTFGGGTKVEIKR | –
43.8 | 0.657 | – | – | XENP35888 H1.24_L1 (antibody, V domains shown) VH: QVQLVQSGAEVKKPGASVKVSCKTSGYTFTEYTMHWVRQAPGQSLEWMGGIDPNNGNTHYNQKFQGRVTITVDKSASTAYMELSSLRSEDTAVYYCARIYYLGRLYFDFWGAGTLVTVSS VL: DIQMTQSPSSLSASVGDRVTITCQASEDIYNRLAWYQQKPGKVPKLLISGATSLETGVPSRFSGSGSGKDYTFTISSLQPEDIATYYCQQYWSSPLTFGGGTKVEIKR | –
124 | 0.686 | – | – | XENP35865 H2_L1.60 (antibody, V domains shown) VH: EVQLVQSGAEVKKPGESLRISCKTSGYTFTEYTMHWVRQMPGKSLEWMGGIDPNNGNTHYNQKFQGHVTISVDKSISTAYLQWSSLKASDTAMYYCARIYYFGRLYFDFWGAGTLVTVSS VL: DIQMTQSPSSLSASVGDRVTITCQASEDIYNRLAWYQQKPGKVPKLLISGATSLETGVPSRFSGSGSGKDYTFTISSLQPEDIATYYCQQLWSSPLTFGGGTKVEIKR | –
66.1 | 0.706 | – | – | XENP36040 H2.90_L1 (antibody, V domains shown) VH: EVQLVQSGAEVKKPGESLRISCKTSGYTFTEYTMHWVRQMPGKSLEWMGGIDPNNLNTHYNQKFQGHVTISVDKSISTAYLQWSSLKASDTAMYYCARIYYFGRLYFDFWGAGTLVTVSS VL: DIQMTQSPSSLSASVGDRVTITCQASEDIYNRLAWYQQKPGKVPKLLISGATSLETGVPSRFSGSGSGKDYTFTISSLQPEDIATYYCQQYWSSPLTFGGGTKVEIKR | –
